Test [1] addresses human somatostatin receptor SSTR1 (human). Put plainly: radioligand binding to CHO cells transfected with human SSTR1, gamma counting.
The target is the same in test [2]. As to the kind of experiment: radioligand binding to CHO cells transfected with human SSTR1 in the presence of 1 µM somatostatin-14.
In test [3] the target is mouse somatostatin receptor SSTR2 (mouse). As to the kind of experiment: radioligand binding to CHO cells transfected with mouse SSTR2 in the presence of 1 µM somatostatin-14.
Test [4] shares this target. As to the kind of experiment: radioligand binding to CHO cells transfected with mouse SSTR2, gamma counting.

In the case of “[125I]iodo-Tyr11-somatostatin-14 (from UniProt P61278) (peptide)”, the control binding (radiolabeled ligand bound in the absence of inhibitor) in test [1] is 1420 cpm; in test [4], 2080 cpm. The non-specific binding (radiolabeled ligand bound in the presence of 1 µM somatostatin-14) in test [2] and in test [3] was 225 cpm each time.

These data come from US5723299.
